Values of other authors in patent US20100247512A1, “Pericellular Collagenase Directs the 3-Dimensional Development of White Adipose Tissue” (The Regents of the University of Michigan, priority 2006, published 2010).
The star is where a group is joined. Decanoyl = CCCCCCCCCC(=O)*; CH2Cl = ClC*

Tests used:
MT1-MMP = MT1-MMP (Homo sapiens, UniProt P50281); conditions: Rosenthal, et al., 2005
pro-MT1-MMP = conditions: Rosenthal, et al., 2005

| Substance | inhibition of MT1-MMP, blocking collagenolysis (MT1-MMP) | inhibition of intracellular conversion of pro-MT1-MMP to its active form (pro-MT1-MMP) |
| --- | --- | --- |
| TIMP-1: member of the tissue inhibitors of metalloproteinases (TIMPs), a family of natural protein MMP inhibitors | poor inhibitor of MT1-MMP | – |
| deconyl-Arg-Val-Lys-Arg-CMK (Decanoyl-RVKR-CH2Cl) | – | inhibits the intracellular conversion of pro-MT1-MMP to its active form |
